{"source": "paper PMC7687155", "origin": "cited, not measured here", "biological_target": "Sep15 (Homo sapiens) (UniProt O60613)", "sequence (O60613 32-165)": "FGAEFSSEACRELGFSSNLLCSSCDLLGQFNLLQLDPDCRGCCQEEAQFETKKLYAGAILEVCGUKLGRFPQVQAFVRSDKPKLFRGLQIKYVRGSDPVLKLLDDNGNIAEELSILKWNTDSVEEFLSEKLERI"}
{"substance": "UGGT1 (from UniProt Q9NYU2)", "values": [{"measurement": "Kd", "value": 20, "unit": "nM"}]}
